B1: FUSE (dsDNA)
DNA 1: GATCACAAAATAAAAAATCCCGAGGGAATATAG
DNA 2: CTATATTCCCTCGGGATTTTTTATTTTGTGATC

Tests used:
[1] = molecular target: FBP full length (CMV expression) (Homo sapiens) (UniProt Q96AE4); experiment: cell_activity; conditions: CAT activation vs empty vector, U937 cells
GST-FBP 298-511 = GST-FBP 298-511 (Homo sapiens, UniProt Q96AE4 SEQ:298-511); experiment: EMSA; conditions: tags: N-terminal GST; C-terminal KEIEQKVQE; label: 5'-32P
GST-FBP 278-372 = GST-FBP 278-372 (Homo sapiens, UniProt Q96AE4 SEQ:278-372); experiment: EMSA; conditions: tags: N-terminal GST; label: 5'-32P
[2] = molecular target: GST-FBP 278-511 insertion mutant 5 (Homo sapiens, UniProt Q96AE4 SEQ:278-511, insertion GIP after 336); experiment: EMSA; conditions: tags: N-terminal GST; C-terminal KEIEQKVQE; label: 5'-32P
[3] = molecular target: GST-FBP 278-511 insertion mutant 9 (Homo sapiens, UniProt Q96AE4 SEQ:278-511, insertion RGSG with deletion of P after 475); experiment: EMSA; conditions: tags: N-terminal GST; C-terminal KEIEQKVQE; label: 5'-32P
[4] = molecular target: GST-FBP 278-511 insertion mutant 7 (Homo sapiens, UniProt Q96AE4 SEQ:278-511, insertion RIR after 373); experiment: EMSA; conditions: tags: N-terminal GST; C-terminal KEIEQKVQE; label: 5'-32P
[5] = molecular target: GST-FBP 278-511 insertion mutant 1 (Homo sapiens, UniProt Q96AE4 SEQ:278-511, insertion RIR between GST and FBP); experiment: EMSA; conditions: tags: N-terminal GST; C-terminal KEIEQKVQE; label: 5'-32P
[6] = molecular target: GST-FBP 278-511 insertion mutant 2 (Homo sapiens, UniProt Q96AE4 SEQ:278-511, insertion IGSRIR after M297); experiment: EMSA; conditions: tags: N-terminal GST; C-terminal KEIEQKVQE; label: 5'-32P
[7] = molecular target: GST-FBP 278-511 insertion mutant 8 (Homo sapiens, UniProt Q96AE4 SEQ:278-511, insertion RDPA with deletion of QS after 404); experiment: EMSA; conditions: tags: N-terminal GST; C-terminal KEIEQKVQE; label: 5'-32P
[8] = molecular target: GST-FBP 278-511 insertion mutant 4 (Homo sapiens, UniProt Q96AE4 SEQ:278-511, Q333 replaced by PRIRE); experiment: EMSA; conditions: tags: N-terminal GST; C-terminal KEIEQKVQE; label: 5'-32P
[9] = molecular target: GST-FBP 278-511 insertion mutant 3 (Homo sapiens, UniProt Q96AE4 SEQ:278-511, insertion IRIR after M297); experiment: EMSA; conditions: tags: N-terminal GST; C-terminal KEIEQKVQE; label: 5'-32P
GST-FBP 278-474 = GST-FBP 278-474 (Homo sapiens, UniProt Q96AE4 SEQ:278-474); experiment: EMSA; conditions: tags: N-terminal GST; label: 5'-32P
GST alone = GST alone (UniProt P08515 P08515:1-218); experiment: EMSA; GST control; conditions: tags: pGEX-2T without insert; label: 5'-32P
Protocol: Purified recombinant proteins were incubated with double stranded, ^32P labeled, oligonucleotide (Probe) in the presence or absence of the indicated quantity of unlabeled, double stranded oligonucleotide as competitor, and subjected to EMSA. (M. Fried and D. M. Crothers, *Nucleic Acids Res.* 9, 6505 (1981)).
DNA binding assays were performed with an equivalent amount of GST-FBP or GST alone incubated in 25 mM Tris, 200 mM Glycine, 1 mM EDTA, 0.5 mg/ml BSA, 0.1% Tween20, 10% glycerol, 100 µg/ml poly(dI:dC), and 0.2 ng of labeled probe. The probe was prepared by annealing two complementary synthetic oligonucleotides and 5' end labeling with T_4 polynucleotide kinase in the presence of γ-^32P-ATP. The top strand of the FUSE oligonucleotide was 5'-[…]-3'(SEQ ID NO: 11). The top strand of Mut A was 5'-GATCACAActacgtgctaggacgccGAATATAG-3' (SEQ ID NO: 12) (lower case indicates changes from FUSE oligomer sequence). The top strand of CRE was 5'-[…]-3' (SEQ ID NO: 13). The top strand of CTE was 5'-[…]-3' (SEQ ID NO: 14). Reaction mixtures were incubated 30 minutes at room temperature and protein-DNA complexes resolved by electrophoresis on a 4.2% acrylamide gel in 25 mM Tris, 200 mM Glycine, 1 mM EDTA buffer.

GST-FBP 278-511 = GST-FBP 278-511 (Homo sapiens, UniProt Q96AE4 SEQ:278-511); experiment: EMSA; same specificity as full length (FIG. 6C); conditions: tags: N-terminal GST (pGEX-1); C-terminal KEIEQKVQE; label: 5'-32P

Molecule | activity [1] | binding result (GST-FBP 298-511) | binding result (GST-FBP 278-372) | binding result [2] | binding result [3] | binding result [4] | binding result [5] | binding result [6] | binding result [7] | binding result [8] | binding result [9] | binding result (GST-FBP 278-474) | binding result (GST alone) | binding result (GST-FBP 278-511)
myc-CAT reporter with FUSE | 5 fold |  |  |  |  |  |  |  |  |  |  |  |  | 
B1 |  | no binding | no binding | no binding | binds | binds | binds | no binding | no binding | no binding | no binding | binds | no binding | binds
